Target: T1, corin variant Q568P (Homo sapiens, UniProt Q9Y5Q5, Q568P)
T1 construct: expressed in transfected cells; host or cells: HEK293
T1 sequence (Q9Y5Q5 1-1042 Q568P): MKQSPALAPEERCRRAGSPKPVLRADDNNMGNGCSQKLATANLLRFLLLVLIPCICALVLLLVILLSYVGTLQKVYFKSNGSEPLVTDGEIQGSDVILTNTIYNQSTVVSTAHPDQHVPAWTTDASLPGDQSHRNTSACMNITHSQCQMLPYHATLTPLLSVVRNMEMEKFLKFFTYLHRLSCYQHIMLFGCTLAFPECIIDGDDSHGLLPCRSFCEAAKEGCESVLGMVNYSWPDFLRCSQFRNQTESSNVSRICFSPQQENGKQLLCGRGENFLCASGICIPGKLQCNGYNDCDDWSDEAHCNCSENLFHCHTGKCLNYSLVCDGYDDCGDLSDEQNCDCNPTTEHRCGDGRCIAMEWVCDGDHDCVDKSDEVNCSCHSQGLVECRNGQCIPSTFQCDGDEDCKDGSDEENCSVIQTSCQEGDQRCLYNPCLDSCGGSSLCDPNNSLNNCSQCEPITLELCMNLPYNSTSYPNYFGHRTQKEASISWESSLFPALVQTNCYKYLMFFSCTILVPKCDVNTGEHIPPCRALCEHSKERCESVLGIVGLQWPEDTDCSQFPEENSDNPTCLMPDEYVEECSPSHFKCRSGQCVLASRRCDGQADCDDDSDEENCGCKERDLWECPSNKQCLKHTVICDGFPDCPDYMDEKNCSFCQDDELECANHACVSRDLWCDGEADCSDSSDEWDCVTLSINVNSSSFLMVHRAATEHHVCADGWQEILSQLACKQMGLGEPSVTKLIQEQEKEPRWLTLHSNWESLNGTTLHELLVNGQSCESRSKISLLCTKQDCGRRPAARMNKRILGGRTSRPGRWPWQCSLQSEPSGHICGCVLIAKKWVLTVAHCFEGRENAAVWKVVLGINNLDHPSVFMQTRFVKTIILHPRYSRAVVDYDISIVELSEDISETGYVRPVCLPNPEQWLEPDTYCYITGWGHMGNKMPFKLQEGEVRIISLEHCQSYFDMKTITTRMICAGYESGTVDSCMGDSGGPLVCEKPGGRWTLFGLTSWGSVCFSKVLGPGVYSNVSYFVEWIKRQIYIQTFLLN
Experiment: PCSK6-mediated corin activation in HEK293 cells, corin variant Q568P
Type: cell-based
Conditions: Western
Source text: Plasmids expressing human corin WT and mutants R801A, S985A, T555I, Q568P, T555I/Q568P, K317E, S472G and R539C were reported previously. Dong, N. et al., J Biol Chem 289, 17909-17916 (2014); Knappe et al., J Biol Chem 278, 52363-52370 (2003); Wu et al., J Biol Chem 277, 16900-16905. (2002). Plasmids expressing human PCSK1-9 were made by cloning respective cDNAs into pcNDA3.1 vector. Recombinant corin and PCSK proteins encoded by these plasmids contained a C-terminal V5 or flag tag for protein detection in Western blotting.
HEK293 and HL-1 cells were transfected with corin or PCSK6 expression plasmids. After 48-72 h, cells were lysed in a buffer containing 25 mM Tris-HCl, pH 7.4, 150 mM NaCl, 1 mM EDTA, 1% (v/v) NP-40, and 1% (v/v) protease inhibitor cocktail. Recombinant corin and PCSK6 proteins were immunoprecipitated with an anti-V5 or anti-flag antibody. Western blotting was carried out to analyze corin expression and activation or PCSK6 expression with or without reducing agents. Percentage of corin activation (corin-p vs. corin fragments) was quantified by densitometric analysis of Western blots.

PCSK6-mediated activation cleavage: detected
B1: proprotein convertase subtilisin/kexin-6 (protein, listed as Homo sapiens)
chain: MPPRAPPAPGPRPPPRAAAATDTAAGAGGAGGAGGAGGPGFRPLAPRPWRWLLLLALPAACSAPPPRPVYTNHWAVQVLGGPAEADRVAAAHGYLNLGQIGNLEDYYHFYHSKTFKRSTLSSRGPHTFLRMDPQVKWLQQQEVKRRVKRQVRSDPQALYFNDPIWSNMWYLHCGDKNSRCRSEMNVQAAWKRGYTGKNVVVTILDDGIERNHPDLAPNYDSYASYDVNGNDYDPSPRYDASNENKHGTRCAGEVAASANNSYCIVGIAYNAKIGGIRMLDGDVTDVVEAKSLGIRPNYIDIYSASWGPDDDGKTVDGPGRLAKQAFEYGIKKGRQGLGSIFVWASGNGGREGDYCSCDGYTNSIYTISVSSATENGYKPWYLEECASTLATTYSSGAFYERKIVTTDLRQRCTDGHTGTSVSAPMVAGIIALALEANSQLTWRDVQHLLVKTSRPAHLKASDWKVNGAGHKVSHFYGFGLVDAEALVVEAKKWTAVPSQHMCVAASDKRPRSIPLVQVLRTTALTSACAEHSDQRVVYLEHVVVRTSISHPRRGDLQIYLVSPSGTKSQLLAKRLLDLSNEGFTNWEFMTVHCWGEKAEGQWTLEIQDLPSQVRNPEKQGKLKEWSLILYGTAEHPYHTFSAHQSRSRMLELSAPELEPPKAALSPSQVEVPEDEEDYTAQSTPGSANILQTSVCHPECGDKGCDGPNADQCLNCVHFSLGSVKTSRKCVSVCPLGYFGDTAARRCRRCHKGCETCSSRAATQCLSCRRGFYHHQEMNTCVTLCPAGFYADESQKNCLKCHPSCKKCVDEPEKCTVCKEGFSLARGSCIPDCEPGTYFDSELIRCGECHHTCGTCVGPGREECIHCAKNFHFHDWKCVPACGEGFYPEEMPGLPHKVCRRCDENCLSCAGSSRNCSRCKTGFTQLGTSCITNHTCSNADETFCEMVKSNRLCERKLFIQFCCRTCLLAG
modifications: C-terminal FLAG tag
